Measurements taken from patent US20190038660.

Test system: ZF6-DBD (Artificial Sequence)
Assay: cell_activity
Conditions: in vivo porcine retina, AAV8 DBR-R vector 1x10^12 gc, hRHO-s-ΔZF6 promoter, qPCR 2 months after delivery; binding inferred from repression, not measured …

Chain of ZF6-DBD (Artificial Sequence) (chain, as listed by the source): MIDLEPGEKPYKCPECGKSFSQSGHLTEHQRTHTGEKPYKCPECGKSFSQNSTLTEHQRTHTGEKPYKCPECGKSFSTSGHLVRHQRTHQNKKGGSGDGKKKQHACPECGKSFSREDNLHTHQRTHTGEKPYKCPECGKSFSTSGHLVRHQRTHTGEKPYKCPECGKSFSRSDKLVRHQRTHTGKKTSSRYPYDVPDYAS

Substance: porcine Rhodopsin proximal promoter (ZF6 target region)
- activity (% repression of Rho transcript): 35
